# Reference: paper PMC7555893, “Structural role of essential light chains in the apicomplexan glideosome” (Communications Biology, 2020)
# T1: MTIP residues 77-204 (P. falciparum 3D7, UniProt Q8I4W8 77-204)
# T1 construct: source: recombinantly expressed as a dimeric complex with PfMyoA-C, purified with PfELC (NiNTA IMAC, TEV, SEC)
# T1 sequence: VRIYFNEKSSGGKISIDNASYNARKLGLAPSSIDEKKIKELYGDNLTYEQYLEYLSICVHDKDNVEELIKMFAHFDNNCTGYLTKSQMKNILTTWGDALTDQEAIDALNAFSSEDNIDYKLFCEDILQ
# T2: Pre-complex of MTIP-S with PfMyoA-C (P. falciparum 3D7 | P. falciparum, UniProt Q8I4W8;Q8IDR3)
# T2 construct: also called MTIP pre-complex with MyoA-C; MTIP/PfMyoA-C complex; source: formed from purified MTIP-S (E. coli) and the MyoA peptide in 1:1.1 molar ratio, 1 h at 4 °C
# T2 sequence 1: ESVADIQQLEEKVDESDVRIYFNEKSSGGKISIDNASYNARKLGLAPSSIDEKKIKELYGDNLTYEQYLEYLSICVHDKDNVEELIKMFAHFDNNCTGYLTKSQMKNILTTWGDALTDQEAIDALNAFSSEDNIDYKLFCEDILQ
# T2 sequence 2: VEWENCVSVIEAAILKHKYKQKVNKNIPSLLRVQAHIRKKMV
# B1: PfMyoA-C (775-816), recombinant, expressed with MTIP 77-204 (domain or fragment)
# chain: VEWENCVSVIEAAILKHKYKQKVNKNIPSLLRVQAHIRKKMV
# B2: P. falciparum essential light chain (PfELC) (natural protein)
# chain: MASDMEEKFREAFILFSSCSDHIEMYKFFELMNSFGIILTNDEKAALPNDINMDYWLNFAKKHYNYEQPFKHINNVNEQNTNVQIKIDNFLGIMKALDTRLTESDLNILLQITNPENKSTLNLKTVSQKLTESI
# notes: also called full-length PfELC; source: E. coli BL21-CodonPlus(DE3)-RIL, purified (Ni-IMAC, TEV, SEC)
# B3: PfELC S127D (phosphomimetic) (natural protein)
# chain: MASDMEEKFREAFILFSSCSDHIEMYKFFELMNSFGIILTNDEKAALPNDINMDYWLNFAKKHYNYEQPFKHINNVNEQNTNVQIKIDNFLGIMKALDTRLTESDLNILLQITNPENKSTLNLKTVDQKLTESI
# notes: source: E. coli, purified (expressed and purified under identical conditions as the wild type)
# Legend:
# [1] = target: TgELC2 E10A (T. gondii); test: ITC; 200 uM peptide (syringe) injected 19 x 2 uL into 20 uM protein (cell); 20 mM HEPES pH 7.5, 150 mM NaCl, 0.5 mM TCEP with 5 mM CaCl2; 25 °C; one-site model
# [2] = target: TgELC2 S102E (phosphomimetic) (T. gondii); test: as above
# [3] = target: T. gondii essential light chain 2 (TgELC2) (T. gondii); test: as above
# [4] = target: TgELC2 S102A (T. gondii); test: as above
# [5] = target: TgELC2 E10A+H110A (T. gondii); test: as above
# [6] = target: T. gondii essential light chain 1 (TgELC1) (T. gondii); test: as above
# [7] = target: TgELC2 S101A (T. gondii); test: as above
# [8] = target: TgELC2 F79A (T. gondii); test: as above
# [9] = target: T. gondii essential light chain 2 (TgELC2) (T. gondii); test: ITC; 200 uM peptide (syringe) injected 19 x 2 uL into 20 uM protein (cell); 20 mM HEPES pH 7.5, 150 mM NaCl, 0.5 mM TCEP with 5 mM EDTA; 25 °C; one-site model
# [10] = target: T. gondii essential light chain 1 (TgELC1) (T. gondii); test: as above
# [11] = target: Pre-complex of TgELC2 with TgMyoA-C (T. gondii) (UniProt O00934); test: ITC; 200 uM protein (syringe) injected 19 x 2 uL into 20 uM pre-formed complex of light chain and MyoA peptide (cell, 1:1.1); 20 mM HEPES pH 7.5, 150 mM NaCl, 0.5 mM TCEP with 1 mM CaCl2; 25 °C; one-site model
# [12] = target: Pre-complex of TgELC2 R17A with TgMyoA-C (T. gondii) (UniProt O00934); test: as above
# [13] = target: Pre-complex of TgELC1 with TgMyoA-C (T. gondii) (UniProt O00934); test: as above
# [14] = target: P. falciparum myosin A tail-interacting protein, short construct (MTIP-S) (P. falciparum 3D7) (UniProt Q8I4W8); test: ITC; MTIP in the cell, PfMyoA peptide in the syringe; one-site model; the conditions of this titration are not told
# [15] = target: T1, MTIP residues 77-204; test: crystal structure; settings: both partners purified
# [16] = target: T2, Pre-complex of MTIP-S with PfMyoA-C; test: ITC; 200 uM protein (syringe) injected 19 x 2 uL into 20 uM pre-formed complex of light chain and MyoA peptide (cell, 1:1.1); 20 mM HEPES pH 7.5, 150 mM NaCl, 0.5 mM TCEP with 1 mM CaCl2; 25 °C; one-site model; settings: both partners purified
molecule,measurement,setting,value
TgMyoA-C^ELC peptide (from UniProt O00934 777-798),Kd,[1],190 nM
same,dH,[1],-17 kcal/mol
same,stoichiometry N,[1],0.79
same,Kd,[2],140 nM
same,dH,[2],-18 kcal/mol
same,stoichiometry N,[2],0.77
same,Kd,[3],39 nM
same,dH,[3],-15 kcal/mol
same,stoichiometry N,[3],0.85
same,Kd,[4],76 nM
same,dH,[4],-16 kcal/mol
same,stoichiometry N,[4],0.79
same,Kd,[5],1100 nM
same,dH,[5],-21 kcal/mol
same,stoichiometry N,[5],0.75
same,Kd,[6],36 nM
same,dH,[6],-13 kcal/mol
same,stoichiometry N,[6],1.05
same,Kd,[7],280 nM
same,dH,[7],-18 kcal/mol
same,stoichiometry N,[7],0.88
same,Kd,[8],280 nM
same,dH,[8],-18 kcal/mol
same,stoichiometry N,[8],0.84
same,Kd,[9],82 nM
same,dH,[9],-18 kcal/mol
same,stoichiometry N,[9],0.77
same,Kd,[10],57 nM
same,dH,[10],-13 kcal/mol
same,stoichiometry N,[10],0.81
"T. gondii myosin light chain 1, short construct (MLC1-S) (domain or fragment)",Kd,[11],0.6 nM
same,dH,[11],-47.6 kcal/mol
same,stoichiometry N,[11],0.81
same,Kd,[12],4.6 nM
same,dH,[12],-49.7 kcal/mol
same,Kd,[13],4.7 nM
same,dH,[13],-39.1 kcal/mol
MLC1-S K168A (domain or fragment),Kd,[11],1.2 nM
same,dH,[11],-47.7 kcal/mol
same,stoichiometry N,[11],0.79
PfMyoA-C^ELC peptide,Kd,[14],303 nM
same,dH,[14],-14.4 kcal/mol
same,stoichiometry N,[14],0.74
MLC1-S Q169A (domain or fragment),Kd,[11],2.3 nM
same,dH,[11],-48.8 kcal/mol
same,stoichiometry N,[11],0.89
B1,binding result,[15],binds
B2,Kd,[16],109 ± 6.2 nM
same,dH,[16],-13.4 ± 0.1 kcal/mol
same,stoichiometry N,[16],0.86 ± 0.01
B3,Kd,[16],260 ± 26 nM
same,dH,[16],-12.6 ± 0.2 kcal/mol
same,stoichiometry N,[16],0.81 ± 0.01
